Test results: article PMC8546961, “Cofactor Specificity of Glucose-6-Phosphate Dehydrogenase Isozymes in Pseudomonas putida Reveals a General Principle Underlying Glycolytic Strategies in Bacteria” (mSystems, 2021)
Where two headings read alike, the source gives them in different places. Values belong to the molecule of their own block, whether it stands above or below them.

How the values were obtained:
[1] = target: T1, G6PDH-C (Pseudomonas putida, UniProt Q88C32); assay: initial rates, NAD(P)H formation at […] nm, global fit (DYNAFIT), rapid-equilibrium random-ordered model; assay type: biochemical; conditions: buffer A (50 mM Tris-HCl, 5 mM NaCl, 5 mM MgCl2, 5% glycerol), pH 8.0, 30°C, G6P varied
T1 construct: gene zwf
T1 sequence (Q88C32 1-485): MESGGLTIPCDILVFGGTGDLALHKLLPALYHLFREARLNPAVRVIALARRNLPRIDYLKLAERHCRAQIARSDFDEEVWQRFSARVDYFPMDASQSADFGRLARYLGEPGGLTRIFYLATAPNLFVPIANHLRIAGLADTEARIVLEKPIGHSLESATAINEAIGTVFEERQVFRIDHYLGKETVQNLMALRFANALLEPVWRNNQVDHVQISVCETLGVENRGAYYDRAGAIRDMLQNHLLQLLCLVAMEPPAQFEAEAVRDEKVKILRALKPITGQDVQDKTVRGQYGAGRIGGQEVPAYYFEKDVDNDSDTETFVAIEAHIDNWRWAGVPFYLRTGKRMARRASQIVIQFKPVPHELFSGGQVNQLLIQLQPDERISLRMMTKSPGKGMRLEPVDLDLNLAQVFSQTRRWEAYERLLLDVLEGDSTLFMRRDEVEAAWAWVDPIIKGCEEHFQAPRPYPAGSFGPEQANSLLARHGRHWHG

[2] = target: T2, G6PDH-B (Pseudomonas putida, UniProt Q88FP7); assay: as above; assay type: biochemical; conditions: buffer A (50 mM Tris-HCl, 5 mM NaCl, 5 mM MgCl2, 5% glycerol), pH 8.0, 30°C, G6P varied
T2 construct: gene zwfB
T2 sequence (Q88FP7 1-501): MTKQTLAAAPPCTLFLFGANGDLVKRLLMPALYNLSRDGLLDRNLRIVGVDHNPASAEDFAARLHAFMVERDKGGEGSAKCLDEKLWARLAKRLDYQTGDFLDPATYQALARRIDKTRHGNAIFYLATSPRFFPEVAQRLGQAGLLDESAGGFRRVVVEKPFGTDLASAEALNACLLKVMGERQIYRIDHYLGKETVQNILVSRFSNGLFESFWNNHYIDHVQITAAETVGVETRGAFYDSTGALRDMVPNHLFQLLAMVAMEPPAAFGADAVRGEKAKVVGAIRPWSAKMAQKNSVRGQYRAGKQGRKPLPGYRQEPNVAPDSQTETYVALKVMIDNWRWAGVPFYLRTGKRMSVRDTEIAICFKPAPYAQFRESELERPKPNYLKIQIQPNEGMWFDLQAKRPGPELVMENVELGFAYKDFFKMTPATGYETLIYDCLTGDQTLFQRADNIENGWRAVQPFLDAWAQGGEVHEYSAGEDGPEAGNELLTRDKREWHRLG

[3] = substrate: NC(=O)c1ccc[n+]([C@@H]2O[C@H](COP(=O)(O)OP(=O)(O)OC[C@H]3O[C@@H](n4cnc5c(N)ncnc54)[C@H](O)[C@@H]3O)[C@@H](O)[C@H]2O)c1; assay: purified protein; assay type: biochemical, Pseudomonas putida; conditions: G6P co-substrate, buffer A (50 mM Tris-HCl, 5 mM NaCl, 5 mM MgCl2, 5% glycerol), pH 8.0, 30°C
[4] = substrate: NC(=O)c1ccc[n+]([C@@H]2O[C@H](COP(=O)(O)OP(=O)(O)OC[C@H]3O[C@@H](n4cnc5c(N)ncnc54)[C@H](OP(=O)(O)O)[C@@H]3O)[C@@H](O)[C@H]2O)c1; assay: purified protein; assay type: biochemical, Pseudomonas putida; conditions: G6P co-substrate, buffer A (50 mM Tris-HCl, 5 mM NaCl, 5 mM MgCl2, 5% glycerol), pH 8.0, 30°C
[5] = dissociation constant of NAD+ from free enzyme, read-out: NAD^+ / Ki
[6] = dissociation constant of NADP+ from free enzyme, read-out: NADP^+ / Ki

B1: G6PDH-B (Pseudomonas putida KT2440) (protein)
chain: T2 sequence (Q88FP7 1-501)
Km [3]: 151 ± 7 µM
kcat [3]: 120 ± 1 s^–1
Km [4]: 165 ± 11 µM
kcat [4]: 113 ± 1 s^–1

B2: G6PDH-C (Pseudomonas putida KT2440) (protein)
chain: T1 sequence (Q88C32 1-485)
Km [3]: (9.5 ± 1.1)×10^3 μM
kcat [3]: 0.77 ± 0.04 s^–1
Km [4]: 3.2 ± 0.7 µM
kcat [4]: 0.54 ± 0.02 s^–1

Now from value to molecule:

Kd [1, 5]: 5800 µM
Kd [2, 5]: 301 ± 48 µM
Molecule: NC(=O)c1ccc[n+]([C@@H]2O[C@H](COP(=O)(O)OP(=O)(O)OC[C@H]3O[C@@H](n4cnc5c(N)ncnc54)[C@H](O)[C@@H]3O)[C@@H](O)[C@H]2O)c1 [NAD^+]

Kd [1, 6]: 9.2 ± 1.9 µM
Kd [2, 6]: 790 ± 110 µM
Molecule: NC(=O)c1ccc[n+]([C@@H]2O[C@H](COP(=O)(O)OP(=O)(O)OC[C@H]3O[C@@H](n4cnc5c(N)ncnc54)[C@H](OP(=O)(O)O)[C@@H]3O)[C@@H](O)[C@H]2O)c1 [NADP^+]
